Columns and labels:
Details in all cases: 20 nM; 72 h
[1] = system: MCF10A; assay: one-nucleolus phenotype percent effect (relative to siNT 0% and siNOL11 100%); higher = more cells with one nucleolus (ribosome biogenesis inhibition)
Experimental: (§1)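 After 72 h, cells were fixed and stained with Hoechst and anti-fibrillarin, and nucleoli per nucleus were counted with CellProfiler. Values are plate-adjusted percent effect for the one-nucleolus and 5+ nucleoli phenotypes, normalised to siNT (0%) and to the positive controls siNOL11 or siKIF11 (100%), as the mean of biological triplicates. Percent viability is the nuclei count relative to siNT.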

[2] = system: MCF10A; assay: percent viability (nuclei count relative to siNT); higher = more viable cells
Experimental: as §1

[3] = system: HeLa; assay: nucleolar rRNA biogenesis percent inhibition (5-EU; siNT 0%, siPOLR1A 100%); higher = stronger inhibition of nucleolar rRNA biogenesis
Experimental: (§2)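 Primary screen hits (microRNA mimics) were re-picked and rescreened for nucleolar number in MCF10A cells (hitpick validation; percent effect relative to the siNT and siNOL11/siKIF11 controls). A secondary screen measured nucleolar rRNA biogenesis inhibition: after 72 h of transfection at 20 nM, cells were labelled 1 h with 1 mM 5-EU and nucleolar 5-EU signal was quantified, normalised to siNT (0%) and siPOLR1A (100%). Means are over n=5 (MCF10A) or n=2 (RPE-1, HeLa) biological replicates.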

[4] = system: MCF10A; assay: as above
Experimental: as §2

[5] = system: hTERT RPE-1; assay: as above
Experimental: as §2

[6] = system: MCF10A; assay: one-nucleolus phenotype percent effect, hitpick validation (relative to siNT 0% and siNOL11 100%); higher = more cells with one nucleolus
Experimental: as §2

[7] = system: MCF10A; assay: 5+ nucleoli phenotype percent effect, hitpick validation (relative to siNT 0% and siKIF11 100%); higher = more cells with five or more nucleoli
Experimental: as §2

[8] = system: MCF10A; assay: 5+ nucleoli phenotype percent effect (relative to siNT 0% and siKIF11 100%); higher = more cells with five or more nucleoli
Experimental: as §1

| Sequence | one-nucleolus phenotype percent effect [1] | percent viability [2] | nucleolar rRNA biogenesis percent inhibition [3] | nucleolar rRNA biogenesis percent inhibition [4] | nucleolar rRNA biogenesis percent inhibition [5] | one-nucleolus phenotype percent effect [6] | 5+ nucleoli phenotype percent effect [7] | 5+ nucleoli phenotype percent effect [8] |
| --- | --- | --- | --- | --- | --- | --- | --- | --- |
| UGAAGGUCUACUGUGUGCCAGG [hsa-miR-493-3p] | 73% | 28% | -1.09% | 69.3% | 108% | 126% | 4.11% | -34.3% |
| UGGUUCUAGACUUGCCAACUA [hsa-miR-182-3p] | 97.2% | 17.5% | 9.57% | 64.6% | 173% | 165% | -12.4% | -35.8% |
| AGUUUUGCAGGUUUGCAUCCAGC [hsa-miR-19b-1-5p] | 76.9% | 26.2% | 92.7% | 30.7% | -48.4% | 196% | -19.8% | -41.5% |
| CGGCGGGGACGGCGAUUGGUC [hsa-miR-1908-5p] | 93.7% | 40.6% | 68.5% | 90.6% | 113% | 128% | -7.82% | -47.2% |
| ACCUUGGCUCUAGACUGCUUACU [hsa-miR-212-5p] | -30.9% | 27.9% | 95.9% | 118% | 114% | -36.9% | 91.8% | 164% |
| AAGGAGCUCACAGUCUAUUGAG [hsa-miR-28-5p] | 69.4% | 39% | 60.9% | 0.18% | 63.6% | 146% | -2.58% | -30.7% |
| UGCCUGUCUACACUUGCUGUGC [hsa-miR-214-5p] | 93.5% | 31.1% | 32% | -8.48% | 87.1% | 122% | -11.5% | -42.1% |
| UAAGGCACGCGGUGAAUGCC [hsa-miR-124-3p] | 70.4% | 39.1% | 91.7% | 61.9% | 28.2% | 139% | 18.1% | -14.4% |
| CUGCCAAUUCCAUAGGUCACAG [hsa-miR-192-3p] | 70.5% | 62.7% | 37.7% | 67.1% | 136% | 137% | -12.3% | -40.8% |
| CAUCUGGCAUCCGUCACACAGA [hsa-miR-3126-3p] | 67% | 9.11% | 4.46% | 22.1% | 50.7% | 105% | -8.87% | -5.56% |
| CUCUUGAGGGAAGCACUUUCUGU [hsa-miR-526b-5p] | 71.3% | 28.7% | 81.5% | 130% | 75.9% | 81.9% | -6.22% | -54.5% |
| UAUGGCACUGGUAGAAUUCACU [hsa-miR-183-5p] | 81% | 16.2% | 21.8% | 33.5% | 204% | 101% | -0.696% | -24% |
| AAAGGAGGAAAUAGGCAGGCCA [hsa-miR-3173-3p] | 67.7% | 17.5% | 25.3% | 86.5% | 159% | 84.3% | -0.0263% | -35.7% |
| CAGGUCGUCUUGCAGGGCUUCU [hsa-miR-431-3p] | 84.4% | 35.3% | 115% | 83.8% | 118% | 182% | -15.2% | -53.4% |
| AGCUUUUGGGAAUUCAGGUAGU [hsa-miR-3140-3p] | 91.3% | 17.7% | 76.4% | 6.44% | 33% | 159% | -14.2% | -25.9% |
| GGCCAGCCACCAGGAGGGCUG [hsa-miR-3194-5p] | 81.9% | 18.6% | -11.3% | 22.9% | 50.9% | 199% | 4.28% | -36.9% |
| AGAUCAGAAGGUGAUUGUGGCU [hsa-miR-383-5p] | 68.7% | 14.2% | 129% | 0.973% | 123% | 125% | -5.3% | -26.7% |
| ACUCGGCGUGGCGUCGGUCGUG [hsa-miR-1307-3p] | 66.2% | 39.9% | 40.2% | 100% | 13.7% | 112% | -13.2% | -50.5% |
| AGGAGCAGUGCCGGCCAAGGCGCC [hsa-miR-6081] | 81.7% | 22.9% |  | 57.3% |  | 152% | -16.9% | -52.9% |
| CAGCCUCUGCCCUUGGCCUCC [hsa-miR-6877-3p] | 69.1% | 28.9% |  | 114% |  | 153% | -16.2% | -44.7% |
| UUUGGGACUGAUCUUGAUGUCU [hsa-miR-3913-5p] | -47.3% | 69.2% |  | 84.5% |  | -50.6% | 61% | 132% |
| UGGCAGUGUCUUAGCUGGUUGU [hsa-miR-34a-5p] | 11.2% | 11.9% | 37.7% | 72.2% | 52.6% | 28.9% | 19.4% | -14.4% |

| Sequence | one-nucleolus phenotype percent effect [1] | percent viability [2] | nucleolar rRNA biogenesis percent inhibition [3] | nucleolar rRNA biogenesis percent inhibition [4] | nucleolar rRNA biogenesis percent inhibition [5] | one-nucleolus phenotype percent effect [6] | 5+ nucleoli phenotype percent effect [7] | 5+ nucleoli phenotype percent effect [8] |
| --- | --- | --- | --- | --- | --- | --- | --- | --- |
| UGAAUGGUAAAGCGAUGUCACA [hsa-miR-4790-3p] | 71.6% | 32.2% |  | 105% |  | 78.8% | -2.28% | -42.5% |
| GUUCUCCCAACGUAAGCCCAGC [hsa-miR-629-3p] | -34.6% | 38.5% | 55.5% | 82.1% | 70.8% | -55.4% | 96.3% | 238% |
| GAGCAGGCGAGGCUGGGCUGAA [hsa-miR-4690-5p] | 70.8% | 11.1% |  | 101% |  | 176% | -12.8% | -41.1% |
| AGAAGGCACUAUGAGAUUUAGA [hsa-miR-605-3p] | 66.4% | 43.9% | 23.1% | 65% | -22.8% | 154% | -15.9% | -49.9% |
| CGCGCCGGGCCCGGGUU [hsa-miR-3195] | 82.1% | 19.4% |  | 51.6% |  | 196% | -15.6% | -31.1% |
| UGUCCUCUAGGGCCUGCAGUCU [hsa-miR-3909] | 93.1% | 25.5% | 74.5% | 42.9% | 66.8% | 196% | -15.4% | -34.2% |
| AAGGAGAUGCUCAGGCAGAU [hsa-miR-6888-5p] | 86.2% | 31% |  | 50.6% |  | 173% | -11.7% | -54% |
| CUCUCCUCCCGGCUUC [hsa-miR-4279] | 87.9% | 14.1% |  | 26.8% |  | 188% | -6.3% | -34.9% |
| UGGUCUGCAAAGAGAUGACUGU [hsa-miR-4527] | 104% | 12.3% |  | 67.3% |  | 151% | -1.79% | -39.4% |
| AAGGAGCUUACAAUCUAGCUGGG [hsa-miR-708-5p] | 120% | 27.9% | 48.6% | -26.3% | 9.05% | 187% | 1.8% | -34.6% |
| CUAGGGGGUUUGCCCUUG [hsa-miR-4278] | 67.1% | 13.5% |  | 45.6% |  | 151% | -14.3% | -35.5% |
| CAAUCAGCAAGUAUACUGCCCU [hsa-miR-34a-3p] | 83.5% | 25.6% | -6.79% | 70.2% | 113% | 127% | 1.68% | -43.5% |
| UCUCUGGGCCUGUGUCUUAGGC [hsa-miR-330-5p] | 67.1% | 17.8% | 66.1% | 65.2% | 109% | 99.9% | 1.29% | -22.3% |
| GAGGGCAUGCGCACUUUGUCC [hsa-miR-4761-3p] | 85.1% | 20% |  | 76% |  | 86.5% | 14.2% | -23.9% |
| AGGCGGAGACUUGGGCAAUUG [hsa-miR-25-5p] | 115% | 29.4% | 86.7% | 75.3% | 45.2% | 182% | -9.31% | -48.5% |
| UGUGUGGAUCCUGGAGGAGGCA [hsa-miR-3911] | 70.3% | 12.9% |  | 53.8% |  | 129% | -10.6% | -47% |
| CACCAGGGCAGAGCAGGGCUGA [hsa-miR-6753-5p] | 68.1% | 15% |  | 91.2% |  | 141% | -17.4% | -40% |
| UGGCAAGGAAAGAAGAGGAUCA [hsa-miR-6809-5p] | 115% | 9.15% |  | 69.8% |  | 207% | -2.51% | -45.7% |
| GAGCAAUGUAGGUAGACUGUUU [hsa-miR-3908] | 89.1% | 19.8% |  | 7.34% |  | 166% | -5.96% | -34.4% |
| AAGCAGCUGCCUCUGAGGC [hsa-miR-646] | 70.7% | 32.4% |  | 130% |  | 152% | -14.4% | -42.6% |
| CUUAUGCAAGAUUCCCUUCUAC [hsa-miR-491-3p] | 73.6% | 15.5% | -3.33% | 63.6% | -86.4% | 118% | -10.1% | -51.5% |
| CUCGGCGCGGGGCGCGGGCUCC [hsa-miR-1469] | 74.3% | 30% |  | 96.7% |  | 158% | -13.8% | -35.5% |

Reference: the supplement of paper PMC10899765
